Experimental data published in patent publication US20240269312A1, “ANTIBODY DRUG CONJUGATE, AND PREPARATION METHOD THEREFOR AND USE THEREOF” (SICHUAN KELUN-BIOTECH BIOPHARMACEUTICAL CO., LTD., priority 2021, published 2024).
Blank lines part the entries; values can stand above or below the molecule they belong to.

How the values were obtained:
[1] = biological target: human ROR1 (on the cell surface) (human) (UniProt Q01973); assay: flow cytometry, Ba/F3-ROR1 cells, D10 as detection antibody
[2] = biological target: T1, human ROR1 (on the cell surface) (human, UniProt Q01973 30-937); assay: flow cytometry, A549 cells
T1 construct: whole, on cells; Ba/F3 cells carry it by lentiviral transduction; also called Ba/F3-ROR1; ROR1 on the surface of human cells
Protocol: (§1) The affinities of 19F6_Hu35V1, 3D8_HuC24 and 38F8_Hu57 to ROR1 on the surface of human cells were determined by flow cytometry.
(§2) In addition to Ba/F3-ROR1 overexpression cells, human mantle cell lymphoma cell line Jeko-1 (Nanjing Cobioer Biosciences), human colon cancer cell line HT-29 (the Cell Bank of the Chinese Academy of Sciences), human lung cancer cell line A549 (the Cell Bank of the China Academy of Sciences) were also used for flow cytometry analysis. Anti-ROR1 antibody UC961 (the VH and VL of antibody UC961 were SEQ ID NO: 5 and 6 disclosed in WO2018237335A1, respectively) and anti-TNP antibody were used as positive control and negative control, respectively. Ba/F3-ROR1, Jeko-1, HT-29 and A549 cells were incubated with different concentration gradients of the purified humanized antibodies on ice for 30 minutes, respectively, washed with flow buffer (PBS+2% FBS) twice, then incubated with goat anti-human fluorescent secondary antibody (Jackson ImmunoResearch) on ice for 30 minutes, and finally loaded on the machine for detection.

[3] = biological target: T1, human ROR1 (on the cell surface); assay: flow cytometry, A549 cells; remark: listed apart in the source
Protocol: as §1, §2

[4] = biological target: T1, human ROR1 (on the cell surface); assay: flow cytometry, A549 cells; remark: listed apart in the source
Protocol: as §1, §2

[5] = biological target: T1, human ROR1 (on the cell surface); assay: flow cytometry, HT-29 cells
Protocol: as §1, §2

[6] = biological target: T1, human ROR1 (on the cell surface); assay: flow cytometry, HT-29 cells; remark: listed apart in the source
Protocol: as §1, §2

[7] = biological target: T1, human ROR1 (on the cell surface); assay: flow cytometry, HT-29 cells; remark: listed apart in the source
Protocol: as §1, §2

[8] = biological target: T1, human ROR1 (on the cell surface); assay: flow cytometry, Jeko-1 cells
[9] = biological target: T1, human ROR1 (on the cell surface); assay: flow cytometry, Jeko-1 cells; remark: listed apart in the source
Protocol: as §1, §2

[10] = biological target: T1, human ROR1 (on the cell surface); assay: flow cytometry, Jeko-1 cells; remark: listed apart in the source
Protocol: as §1, §2

[11] = biological target: T1, human ROR1 (on the cell surface); assay: flow cytometry, Ba/F3-ROR1 cells
Protocol: as §1, §2

[12] = biological target: T1, human ROR1 (on the cell surface); assay: flow cytometry, Ba/F3-ROR1 cells; remark: listed apart in the source
Protocol: as §1, §2

[13] = biological target: T1, human ROR1 (on the cell surface); assay: flow cytometry, Ba/F3-ROR1 cells; remark: listed apart in the source
Protocol: as §1, §2

human ROR1 ECD protein [14] = biological target: T2, human ROR1 ECD protein (human, UniProt Q01973 30-406); assay: BLI (Octet ForteBio), antibody on AHC probe, ROR1 ECD in solution, 1:1 model; average of three determinations
T2 construct: extracellular domain; also called human ROR ECD protein

human ROR1 ECD protein [15] = biological target: T2, human ROR1 ECD protein; assay: BLI (Octet ForteBio), antibody on AHC probe, ROR1 ECD in solution
Protocol: The dynamic affinities of 19F6_Hu35V1, 3D8_HuC24, 38F8_Hu57 and the positive control PGP-1501 antibody UC961 to human ROR1 ECD protein were determined by Octet ForteBio method.

human ROR1 ECD protein [16] = biological target: human ROR1 ECD protein (Homo sapiens, UniProt Q01973); assay: Dynamic affinity determination by Octet ForteBio; assay type: binding; conditions: for kdis / kon: 1:1 kinetic binding model, UC961 value is an average of three determinations
Protocol: The dynamic affinities of 19F6_Hu35V1, 3D8_HuC24, 38F8_Hu57 and the positive control PGP-1501 antibody UC961 to human ROR1 ECD protein were determined by Octet ForteBio method. The specific experimental steps were as follows: the anti-human IgG Fc AHC probe (ForteBio) was first bound to the antibody to be tested to a response signal value of 0.8-1.2 nm, and the dynamic affinity was measured by immersing the antibody-coated probe into wells containing human ROR ECD protein at different concentrations (16, 8, 4, 2, 1, 0.5, 0.25, and 0 μg/mL), the binding was conducted for 2-4 minutes, followed by dissociation for 4-6 minutes, 1:1 kinetic binding model was used for all fitting analysis.

Chain of human ROR1 ECD protein (Homo sapiens, UniProt Q01973) (Q01973 30-406 limits assumed): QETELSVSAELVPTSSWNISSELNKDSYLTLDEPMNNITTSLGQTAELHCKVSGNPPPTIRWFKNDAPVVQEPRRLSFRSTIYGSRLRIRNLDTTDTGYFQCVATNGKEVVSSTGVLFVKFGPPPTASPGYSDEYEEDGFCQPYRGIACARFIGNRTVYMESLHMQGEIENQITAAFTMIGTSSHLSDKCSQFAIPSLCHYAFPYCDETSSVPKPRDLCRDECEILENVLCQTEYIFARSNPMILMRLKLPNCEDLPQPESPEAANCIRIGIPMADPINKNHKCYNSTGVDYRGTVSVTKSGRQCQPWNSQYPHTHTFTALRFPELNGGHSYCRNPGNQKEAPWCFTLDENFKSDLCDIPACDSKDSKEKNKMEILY
T2 sequence (Q01973 30-406): as the sequence (Q01973 30-406 limits assumed) above
T1 sequence (Q01973 30-937): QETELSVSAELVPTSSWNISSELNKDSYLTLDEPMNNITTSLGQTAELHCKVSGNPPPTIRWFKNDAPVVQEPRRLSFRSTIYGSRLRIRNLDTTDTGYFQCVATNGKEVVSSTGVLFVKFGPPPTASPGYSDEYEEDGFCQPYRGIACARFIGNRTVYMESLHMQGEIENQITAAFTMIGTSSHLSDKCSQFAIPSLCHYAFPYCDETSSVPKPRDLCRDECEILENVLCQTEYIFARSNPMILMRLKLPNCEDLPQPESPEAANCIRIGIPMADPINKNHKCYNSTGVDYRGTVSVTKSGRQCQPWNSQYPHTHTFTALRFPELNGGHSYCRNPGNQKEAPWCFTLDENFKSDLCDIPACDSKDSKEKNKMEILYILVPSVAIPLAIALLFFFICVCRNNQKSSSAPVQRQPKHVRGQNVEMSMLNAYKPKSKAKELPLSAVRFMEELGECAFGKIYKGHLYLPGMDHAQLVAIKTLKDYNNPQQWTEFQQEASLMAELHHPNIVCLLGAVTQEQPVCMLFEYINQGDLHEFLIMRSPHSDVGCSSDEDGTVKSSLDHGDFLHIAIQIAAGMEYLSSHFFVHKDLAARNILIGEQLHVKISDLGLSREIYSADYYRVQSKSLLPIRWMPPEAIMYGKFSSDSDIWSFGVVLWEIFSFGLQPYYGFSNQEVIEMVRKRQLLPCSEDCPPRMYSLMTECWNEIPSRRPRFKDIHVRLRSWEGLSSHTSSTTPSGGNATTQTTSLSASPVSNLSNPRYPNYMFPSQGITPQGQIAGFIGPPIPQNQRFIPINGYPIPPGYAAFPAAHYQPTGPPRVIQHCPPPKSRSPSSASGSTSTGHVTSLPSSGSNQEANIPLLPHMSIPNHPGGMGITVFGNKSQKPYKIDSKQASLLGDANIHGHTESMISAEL
Chain of human ROR1 (on the cell surface) (human) (Q01973 30-937): as above

positive rate [1]: 100%
B1: Anti-human ROR1 antibody D10 (antibody, from another filing, V domains shown)
VH: QVQLKESGPGLVAPSQTLSITCTVSGFSLTSYGVHWVRQPPGKGLEWLGVIWAGGFTNYNSALKSRLSISKDNSKSQVLLKMTSLQTDDTAMYYCARRGSSYSMDYWGQGTSVIVSS
VL: EIVLSQSPAITAASLGQKVTITCSASSNVSYIHWYQQRSGTSPRPWIYEISKLASGVPVRFSGSGSGTSYSLTISSMEAEDAAIYYCQQWNYPLITFGSGTKLEIQ

EC50 [2]: 0.16 nM
EC50 [3]: 0.46 nM
EC50 [4]: 0.21 nM
EC50 [5]: 0.2 nM
EC50 [6]: 0.21 nM
EC50 [7]: 0.37 nM
EC50 [8]: 0.36 nM
EC50 [9]: 0.14 nM
EC50 [10]: 0.06 nM
EC50 [11]: 0.3 nM
EC50 [12]: 0.31 nM
EC50 [13]: 1.07 nM
Kd (human ROR1 ECD protein [14]): 8.73 nM
koff (human ROR1 ECD protein [14]): 0.0112 s⁻¹
kon (human ROR1 ECD protein [14]): 1.26e+06 M⁻¹ s⁻¹
B2: Anti-ROR1 antibody UC961 (antibody, V domains shown)
VH: QVQLQESGPGLVKPSQTLSLTCTVSGYAFTAYNIHWVRQAPGQGLEWMGSFDPYDGGSSYNQKFKDRLTISKDTSKNQVVLTMTNMDPVDTATYYCARGWYYFDYWGHGTLVTVSS
VL: DIVMTQTPLSLPVTPGEPASISCRASKSISKYLAWYQQKPGQAPRLLIYSGSTLQSGIPPRFSGSGYGTDFTLTINNIESEDAAYYFCQQHDESPYTFGEGTKVEIK

fold stronger affinity (KD) than control antibody UC961 (human ROR1 ECD protein [15]): 5.4 fold
B3: 19F6_Hu35V1 (antibody, human IgG1, kappa, V domains shown)
VH: QVQLQESGPGLVKPSQTLSLTCTVSGYSITSDYAWNWIRQFPGKGLEWIGYISYSGSIRYNPSLKSRVTISRDTSKNQFSLKLSSVTAADTAVYYCARGEITYYFDYWGQGTLVTVSS
VL: ETTLTQSPAFMSATPGDKVTISCKASTSIDDDMNWYQQKPGEPPKLIISEGNTLRPGIPPRFSSSGYGTDFTFTINKIKSEDAATYYCLQSNDLPLTFGQGTKLEIKR
notes: Humanized anti-human ROR1 antibody, human IgG1/kappa, expressed in Expi293F cells and purified with Protein A

kdis (human ROR1 ECD protein [16]): 0.000863 s⁻¹
kon (human ROR1 ECD protein [16]): 538000 M⁻¹ s⁻¹
dissociation rate versus control antibody UC961 (as shown by the Kdis value) (human ROR1 ECD protein [16]; versus UC961): significantly slower
B4: 19F6_Hu35V1: humanized anti-ROR1 antibody; VH SEQ ID NO:1, VL SEQ ID NO:2, human IgG1 heavy and kappa light chain constant regions (antibody, V domains shown)
VH: QVQLQESGPGLVKPSQTLSLTCTVSGYSITSDYAWNWIRQFPGKGLEWIGYISYSGSIRYNPSLKSRVTISRDTSKNQFSLKLSSVTAADTAVYYCARGEITYYFDYWGQGTLVTVSS
VL: ETTLTQSPAFMSATPGDKVTISCKASTSIDDDMNWYQQKPGEPPKLIISEGNTLRPGIPPRFSSSGYGTDFTFTINKIKSEDAATYYCLQSNDLPLTFGQGTKLEIK
modifications: human IgG1 and kappa constant regions; 19F6_Hu35V1 VH; 19F6_Hu35V1 VL

kdis (human ROR1 ECD protein [16]): 0.0153 s⁻¹
kon (human ROR1 ECD protein [16]): 586000 M⁻¹ s⁻¹
affinity versus control antibody UC961 (human ROR1 ECD protein [16]; versus UC961): comparable
B5: 3D8_HuC24: humanized anti-ROR1 antibody; VH SEQ ID NO:9, VL SEQ ID NO:10, human IgG1 heavy and kappa light chain constant regions (antibody, V domains shown)
VH: EVQLVESGGGLVQPGGSLRLSCAASGFTFSSYAMSWVRQAPGKGLEWVASINSGGSTYYPDSVKGRFTISRDNAKNSLYLQMNSLRAEDTAVYYCARVNYYGYGDYAMDYWGQGTLVTVSS
VL: DIQMTQSPSSLSASVGDRVTITCQASQDISNYLTWFQQKPGKSPKTLIHRANRLVTGVPSRFSGSGSGTDFTFTISSLQPEDIATYYCLQYDEFPYTFGGGTKVEIK
modifications: human IgG1 and kappa constant regions; 3D8_HuC24 VH; 3D8_HuC24 VL

kdis (human ROR1 ECD protein [16]): 0.00242 s⁻¹
kon (human ROR1 ECD protein [16]): 241000 M⁻¹ s⁻¹
affinity versus control antibody UC961 (human ROR1 ECD protein [16]; versus UC961): comparable
B6: 38F8_Hu57: humanized anti-ROR1 antibody; VH SEQ ID NO:17, VL SEQ ID NO:18, human IgG1 heavy and kappa light chain constant regions (antibody, V domains shown)
VH: EVQLVESGGGLVQPGGSLRLSCAASGFTFSNYAMSWVRQAPEKRLEWVASISSGGPTYYPDSVKGRFTVSRDNSKNTLYLQMNSLRAEDTAVYYCARGYRYDVNWYFDVWGAGTMVTVSS
VL: DIQMTQSPSSLSASVGDRVTITCQASQDISNYLTWFQQKPGKSPKTLIHRANRLVTGVPSRFSGSGSGTDYTFTISSLQPEDIAIYYCLQYDEFPYTFGGGTKVEIK
modifications: human IgG1 and kappa constant regions; 38F8_Hu57 VH; 38F8_Hu57 VL
